Measured values reported in patent US20210155918A1.

How the values were obtained:
[1] = molecular target: rPro^ΔSLQ, recombinant human prothrombin with amino acids Ser^478/Leu^480/Gln^481 deleted (human) (UniProt P00734)
[2] = molecular target: rPro^ΔS5V, recombinant human prothrombin with region SVLQV deleted (human) (UniProt P00734)
[3] = molecular target: rPro^ΔN10, recombinant human prothrombin missing amino acids … (human) (UniProt P00734)
[4] = molecular target: rPro^Δ473-487, recombinant human prothrombin with region 473-487 deleted (human) (UniProt P00734)
[5] = molecular target: rPro^ΔC10, recombinant human prothrombin missing amino acids … (human) (UniProt P00734)

Row | Substance | Km of prothrombinase for rPro activation [1] | kcat/Km of prothrombinase for rPro activation (IIa generation, chromogenic substrate) [1] | Rate of Pro molecules cleavage by prothrombinase (nM consumed · s^-1 · fXa^-1) [2] | Rate of Pro molecules cleavage by prothrombinase (nM consumed · s^-1 · fXa^-1) [3] | Rate of Pro molecules cleavage by prothrombinase (nM consumed · s^-1 · fXa^-1) [4] | Rate of Pro molecules cleavage by membrane-bound fXa alone (nM consumed · s^-1 · fXa^-1) [5] | Rate of Pro molecules cleavage by membrane-bound fXa alone (nM consumed · s^-1 · fXa^-1) [2] | Rate of Pro molecules cleavage by membrane-bound fXa alone (nM consumed · s^-1 · fXa^-1) [3] | Rate of Pro molecules cleavage by membrane-bound fXa alone (nM consumed · s^-1 · fXa^-1) [4]
1 | prothrombinase (from UniProt P00742) (enzyme) | 3.2 µM | 670000 M⁻¹ s⁻¹ | 1.8 | 1.5 | 1 |  |  |  | 
2 | Human fXa (from UniProt P00742) (enzyme) |  |  |  |  |  | 0.35 | 0.8 | 0.7 | 0.53
